Substitutions are numbered along the chain they refer to. In names and notes the source's numbering stands.
B1: Anti-CD3 human IgG1 antibody, wild type Fc (antibody)
heavy: not shown
light: QAVVTQEPSLTVSPGGTVTLTCRSSTGAVTTSNYANWVQQKPGQAPRGLIGGTNKRAPWTPARFSGSLLGDKAALTLSGAQPEDEAEYFCALWYSNLWVFGGGTKLTVLGQPKAAPSVTLFPPSSEELQANKATLVCLISDFYPGAVTVAWKADSSPVKAGVETTTPSKQSNNKYAASSYLSLTPEQWKSHRSYSCQVTHEGSTVEKTVAPTECS
notes: also called WT; WT IgG1
B2: Anti-CD3 human IgG1 antibody, DAPA Fc variant (D265A/P329A) (antibody)
heavy: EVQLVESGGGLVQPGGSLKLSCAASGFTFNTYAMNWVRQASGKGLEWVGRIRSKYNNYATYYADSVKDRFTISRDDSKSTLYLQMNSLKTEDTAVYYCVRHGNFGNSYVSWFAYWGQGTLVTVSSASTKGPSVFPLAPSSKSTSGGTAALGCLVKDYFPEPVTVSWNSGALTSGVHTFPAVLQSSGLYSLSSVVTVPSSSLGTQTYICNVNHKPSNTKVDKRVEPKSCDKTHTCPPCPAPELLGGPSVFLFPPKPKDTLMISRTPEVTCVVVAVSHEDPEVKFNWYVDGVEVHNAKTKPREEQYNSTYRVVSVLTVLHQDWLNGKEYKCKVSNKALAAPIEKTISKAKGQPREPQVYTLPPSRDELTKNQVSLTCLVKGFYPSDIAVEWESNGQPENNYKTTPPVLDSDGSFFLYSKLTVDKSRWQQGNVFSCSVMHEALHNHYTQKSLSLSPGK
light: B1 light
notes: also called DAPA-IgG1; FCV-8
B3: Anti-CD3 human IgG1 antibody, LALAPA Fc variant (L234A/L235A/P329A) (antibody)
heavy: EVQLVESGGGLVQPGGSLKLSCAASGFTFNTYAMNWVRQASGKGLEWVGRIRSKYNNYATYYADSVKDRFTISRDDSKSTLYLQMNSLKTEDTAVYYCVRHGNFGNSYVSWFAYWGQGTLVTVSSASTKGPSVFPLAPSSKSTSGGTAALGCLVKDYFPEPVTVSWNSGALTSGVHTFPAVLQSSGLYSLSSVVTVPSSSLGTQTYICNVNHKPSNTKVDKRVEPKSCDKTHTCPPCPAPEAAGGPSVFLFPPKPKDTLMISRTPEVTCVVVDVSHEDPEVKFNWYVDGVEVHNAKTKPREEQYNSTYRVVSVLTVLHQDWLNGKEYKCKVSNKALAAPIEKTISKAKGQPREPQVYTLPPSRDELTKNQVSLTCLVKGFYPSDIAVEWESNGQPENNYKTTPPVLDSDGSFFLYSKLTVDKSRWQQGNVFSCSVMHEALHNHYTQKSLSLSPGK
light: B1 light
notes: also called LALAPA-IgG1; FCV-1
B4: Anti-CD3 human IgG1 antibody, R214K allotype (antibody)
heavy: not shown
light: B1 light
notes: also called WT allotype; WT allotype R214K
B5: Anti-CD3 human IgG1 antibody, LALASKPA Fc variant (L234A/L235A/S267K/P329A) (antibody)
heavy: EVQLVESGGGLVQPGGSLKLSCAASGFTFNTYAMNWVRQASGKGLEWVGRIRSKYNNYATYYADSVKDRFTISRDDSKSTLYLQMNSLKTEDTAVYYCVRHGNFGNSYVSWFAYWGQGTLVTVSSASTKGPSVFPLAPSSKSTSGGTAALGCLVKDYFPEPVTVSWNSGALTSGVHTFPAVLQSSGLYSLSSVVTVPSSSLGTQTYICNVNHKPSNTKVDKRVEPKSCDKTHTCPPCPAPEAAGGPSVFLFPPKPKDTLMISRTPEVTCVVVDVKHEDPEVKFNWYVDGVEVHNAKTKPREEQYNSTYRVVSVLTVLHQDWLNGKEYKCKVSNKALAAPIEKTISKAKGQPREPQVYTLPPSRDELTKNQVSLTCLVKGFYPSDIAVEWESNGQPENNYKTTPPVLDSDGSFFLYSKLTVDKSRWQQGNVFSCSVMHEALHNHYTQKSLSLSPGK
light: B1 light
notes: also called FCV-4
B6: Anti-CD3 human IgG1 antibody, DAPASK Fc variant (D265A/P329A/S267K) (antibody)
heavy: EVQLVESGGGLVQPGGSLKLSCAASGFTFNTYAMNWVRQASGKGLEWVGRIRSKYNNYATYYADSVKDRFTISRDDSKSTLYLQMNSLKTEDTAVYYCVRHGNFGNSYVSWFAYWGQGTLVTVSSASTKGPSVFPLAPSSKSTSGGTAALGCLVKDYFPEPVTVSWNSGALTSGVHTFPAVLQSSGLYSLSSVVTVPSSSLGTQTYICNVNHKPSNTKVDKRVEPKSCDKTHTCPPCPAPELLGGPSVFLFPPKPKDTLMISRTPEVTCVVVAVKHEDPEVKFNWYVDGVEVHNAKTKPREEQYNSTYRVVSVLTVLHQDWLNGKEYKCKVSNKALAAPIEKTISKAKGQPREPQVYTLPPSRDELTKNQVSLTCLVKGFYPSDIAVEWESNGQPENNYKTTPPVLDSDGSFFLYSKLTVDKSRWQQGNVFSCSVMHEALHNHYTQKSLSLSPGK
light: B1 light
notes: also called DAPASK-IgG1; FCV-5
B7: Anti-CD3 human IgG1 antibody, LALAPG Fc variant (L234A/L235A/P329G) (antibody)
heavy: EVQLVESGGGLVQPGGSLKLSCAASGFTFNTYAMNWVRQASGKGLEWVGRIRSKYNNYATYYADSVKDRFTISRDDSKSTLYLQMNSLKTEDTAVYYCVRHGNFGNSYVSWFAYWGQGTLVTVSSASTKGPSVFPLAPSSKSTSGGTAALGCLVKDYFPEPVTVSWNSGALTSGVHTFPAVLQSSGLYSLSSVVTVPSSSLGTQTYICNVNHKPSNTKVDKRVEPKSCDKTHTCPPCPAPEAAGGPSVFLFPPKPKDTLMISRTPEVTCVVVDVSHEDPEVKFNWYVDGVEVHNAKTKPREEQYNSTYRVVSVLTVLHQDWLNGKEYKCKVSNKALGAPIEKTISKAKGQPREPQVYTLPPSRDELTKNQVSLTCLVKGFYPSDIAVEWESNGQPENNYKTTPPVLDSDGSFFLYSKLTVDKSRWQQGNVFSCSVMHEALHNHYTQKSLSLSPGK
light: B1 light
notes: also called LALAPG-IgG1; FCV-3
B8: Anti-CD3 human IgG1 antibody, LALAGA Fc variant (L234A/L235A/G237A) (antibody)
heavy: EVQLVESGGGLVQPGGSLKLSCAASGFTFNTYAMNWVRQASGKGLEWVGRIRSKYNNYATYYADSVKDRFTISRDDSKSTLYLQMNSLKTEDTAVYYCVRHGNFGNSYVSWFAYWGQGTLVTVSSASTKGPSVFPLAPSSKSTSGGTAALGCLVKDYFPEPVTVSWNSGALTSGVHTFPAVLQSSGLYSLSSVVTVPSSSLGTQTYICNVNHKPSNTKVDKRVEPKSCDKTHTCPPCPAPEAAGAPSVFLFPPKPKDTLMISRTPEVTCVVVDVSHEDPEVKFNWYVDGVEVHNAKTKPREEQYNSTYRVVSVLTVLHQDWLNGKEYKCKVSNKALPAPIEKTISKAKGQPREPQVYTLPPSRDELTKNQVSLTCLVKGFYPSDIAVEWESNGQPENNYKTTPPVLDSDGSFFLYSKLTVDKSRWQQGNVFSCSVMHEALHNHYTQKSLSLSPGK
light: B1 light
notes: also called LALAGA-IgG1; FCV-2
B9: Anti-CD3 human IgG1 antibody, GADAPASK Fc variant (G237A/D265A/P329A/S267K) (antibody)
heavy: B6 heavy with G245A
light: B1 light
notes: also called FCV-7
B10: Anti-CD3 human IgG1 antibody, DANAPA Fc variant (D265A/N297A/P329A) (antibody)
heavy: B6 heavy with K275S, N305A
light: B1 light
notes: Variant made by PCR mutagenesis of the anti-CD3 WT IgG1 heavy chain; also called DANAPA-IgG1; FCV-9
B11: Anti-CD3 human IgG1 antibody, GADAPA Fc variant (G237A/D265A/P329A) (antibody)
heavy: B6 heavy with G245A, K275S
light: B1 light
notes: also called GADAPA-IgG1; FCV-6

The binders below were run against T1, human Fc gamma receptor 1A (human, UniProt P12314 16-288, limits assumed) (assay: SPR (Biacore T200), antibody amine-coupled on CM5 chip, receptor as analyte).
T1 construct: also called hFcgammaRIA; hFcγRIA
T1 sequence (P12314 16-288 limits assumed): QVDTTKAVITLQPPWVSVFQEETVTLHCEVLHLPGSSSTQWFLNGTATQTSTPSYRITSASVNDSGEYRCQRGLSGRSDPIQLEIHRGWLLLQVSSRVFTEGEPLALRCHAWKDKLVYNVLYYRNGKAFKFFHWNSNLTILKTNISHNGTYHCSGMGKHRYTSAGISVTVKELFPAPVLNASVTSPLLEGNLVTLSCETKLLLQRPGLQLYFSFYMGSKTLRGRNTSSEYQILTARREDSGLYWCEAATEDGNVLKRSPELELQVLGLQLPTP
Protocol: (§1) Binding to human C1q was evaluated. All SPR buffers were prepared using deionized water. The samples were prepared in running buffer PBS pH 7.4 with 0.005% Tween-20. SPR measurements were measured on a Biacore T200 (GE-Healthcare Life Sciences) controlled by Biacore T200 control software version 2.0.1. Surface plasmon resonance was conducted using a Biacore T200 to assess binding affinity of antibody IgG1 WT and variants to human Fc receptors, including FcγR1A, and FcγR3A (V158) and human C1q.
(§2) The antibodies were covalently immobilized on a CM5 sensor chip whereas Fc gamma receptors or human C1q served as analytes in solution (FIG. 38). For Fc gamma receptors binding evaluation (method 1), antibodies were diluted in 10 mM sodium acetate pH 4 and immobilized at a density of approximately 950 resonance units (RU's) on the CM5 sensor chip applying a standard amine coupling procedure. Flow cell 1 was blank immobilized to serve as a reference. The kinetic binding data were collected by subsequent injections of 1:2 dilution series of the human Fc gamma receptors on all flow cells at a flow rate of 30 μl/min and at a temperature of 25° C. The Fc gamma receptors were diluted in the running buffer at concentrations ranging from 0.2 nM to 1000 nM (e.g. FcγR1A: 0.2 to 100 nM, FcγR3A V158: 1.95 to 1000 nM). The chip surface was regenerated using 20 mM glycine pH 2.0 solution after each measuring cycle. For human C1q binding evaluation (method 2), antibodies were diluted in 10 mM sodium acetate pH 4 and immobilized at a density of approximately 7000 resonance units (RU's) on the CM5 sensor chip applying a standard amine coupling procedure. Flow cell 1 was blank immobilized to serve as a reference. The kinetic binding data were collected by subsequent injections of 1:2 dilution series of the human C1q on all flow cells at a flow rate of 30 μl/min and at a temperature of 25° C. The human C1q was diluted in the running buffer at concentrations ranging from 0.49 nM to 250 nM. The chip surface was regenerated using 50 mM NaOH solution after each measuring cycle. Zero concentration samples (blank runs) were measured for both methods to allow double-referencing during data evaluation.
(§3) Data were evaluated using the Biacore T200 evaluation software.

Binder | Maximum response at 100 nM hFcgammaRIA (RU)
B1 | 193
B2 | 63
B3 | 26
B4 | 193

The binders below were run against T2, human Fc gamma receptor 3A, V158 variant (human, UniProt P08637 17-208) in the same assay as above.
T2 construct: also called hFcgammaRIIIA V158; FcγR3A (V158)
T2 sequence (P08637 other isoform, or with tags, fused parts or gaps mutant): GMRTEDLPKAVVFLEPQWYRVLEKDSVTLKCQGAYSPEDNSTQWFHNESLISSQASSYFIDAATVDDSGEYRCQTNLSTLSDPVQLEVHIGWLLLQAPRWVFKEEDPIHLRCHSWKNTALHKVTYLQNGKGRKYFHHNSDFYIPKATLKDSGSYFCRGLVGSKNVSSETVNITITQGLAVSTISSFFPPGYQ
Protocol: as §1, §2, §3

Binder | Maximum response at 1000 nM hFcgammaRIIIA V158 (RU)
B1 | 79
B5 | 20
B6 | 15
B7 | 33
B8 | 25
B2 | 15
B9 | 12
B10 | 31
B3 | 19
B11 | 9
B4 | 72

These binders were tested against T3, human C1q (human, UniProt P02745 23-245; P02746 28-253; P02747 29-245) (assay: SPR (Biacore T200), antibody amine-coupled on CM5 chip, C1q as analyte).
T3 construct: also called hC1q
T3 sequence (P02745 23-245 limits assumed, chain 1 of 3): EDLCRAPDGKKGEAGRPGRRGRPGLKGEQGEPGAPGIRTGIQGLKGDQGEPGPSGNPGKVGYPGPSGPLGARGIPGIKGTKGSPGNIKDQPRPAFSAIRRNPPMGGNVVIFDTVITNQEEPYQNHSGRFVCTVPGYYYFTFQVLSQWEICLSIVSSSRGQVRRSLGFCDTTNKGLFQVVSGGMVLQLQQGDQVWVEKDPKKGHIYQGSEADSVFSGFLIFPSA
T3 sequence (P02746 28-253 limits assumed, chain 2 of 3): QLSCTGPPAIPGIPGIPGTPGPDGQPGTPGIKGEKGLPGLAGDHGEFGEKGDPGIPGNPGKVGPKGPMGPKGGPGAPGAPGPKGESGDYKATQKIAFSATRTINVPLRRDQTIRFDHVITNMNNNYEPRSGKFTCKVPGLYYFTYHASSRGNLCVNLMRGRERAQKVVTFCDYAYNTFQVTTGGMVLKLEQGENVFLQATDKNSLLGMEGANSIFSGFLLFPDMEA
T3 sequence (P02747 29-245 limits assumed, chain 3 of 3): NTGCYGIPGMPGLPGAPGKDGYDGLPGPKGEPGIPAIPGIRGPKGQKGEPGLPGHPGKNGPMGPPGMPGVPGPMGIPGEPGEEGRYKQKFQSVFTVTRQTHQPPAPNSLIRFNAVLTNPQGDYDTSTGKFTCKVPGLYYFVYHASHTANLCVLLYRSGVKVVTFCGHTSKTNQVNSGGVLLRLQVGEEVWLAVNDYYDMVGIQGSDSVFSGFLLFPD
Protocol: as §1, §2, §3

Binder | Maximum response at 250 nM hC1q (RU)
B1 | 680
B5 | 95
B6 | 86
B7 | 245
B8 | 335
B2 | 85
B9 | 168
B10 | 29
B3 | 270
B11 | 203
B4 | 640
